This note sets out measurements from PMC4169570, “Acyl-Homoserine Lactone Recognition and Response Hindering the Quorum-Sensing Regulator EsaR”.

What is called Kd is the concentration at which binding is half-saturated.

Common to all, as to settings: protein: recombinant; tags: N-terminal His6-MBP-TEV-Gly5; chain copies: 2; label: 5' TAMRA on strand 1; blunt
For data set [1], the target named is T1, HMGE A32V (Pantoea stewartii subsp. stewartii, UniProt P54293 1-249, A32V).
T1 sequence: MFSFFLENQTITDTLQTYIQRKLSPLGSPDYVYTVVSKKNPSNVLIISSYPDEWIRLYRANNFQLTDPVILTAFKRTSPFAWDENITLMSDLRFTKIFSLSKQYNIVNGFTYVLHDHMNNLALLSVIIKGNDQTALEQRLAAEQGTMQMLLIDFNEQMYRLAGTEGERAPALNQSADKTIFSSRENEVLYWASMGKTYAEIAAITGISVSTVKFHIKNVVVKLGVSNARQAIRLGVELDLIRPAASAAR
Kind of data set: fluorescence anisotropy; no AHL; 150 mM NaCl, 6 mM HEPES, 17.5 mM Tris, 3% glycerol, pH 7.6, 25 C, 20 min; 3 nM T-esabox, 0-100 nM protein.

The target of data set [2] is T2, HMGE D83E (Pantoea stewartii subsp. stewartii, UniProt P54293 1-249, D83E).
T2 sequence: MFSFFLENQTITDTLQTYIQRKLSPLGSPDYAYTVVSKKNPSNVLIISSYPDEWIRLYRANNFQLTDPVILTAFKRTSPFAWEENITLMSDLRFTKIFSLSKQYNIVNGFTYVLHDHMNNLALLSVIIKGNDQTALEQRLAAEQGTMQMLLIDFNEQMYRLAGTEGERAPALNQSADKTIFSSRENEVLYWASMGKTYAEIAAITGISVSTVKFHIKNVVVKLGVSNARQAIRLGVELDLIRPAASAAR
The data set is described as above.

In data set [3] the target is T3, HMGE F94Y (Pantoea stewartii subsp. stewartii, UniProt P54293 1-249, F94Y).
T3 sequence: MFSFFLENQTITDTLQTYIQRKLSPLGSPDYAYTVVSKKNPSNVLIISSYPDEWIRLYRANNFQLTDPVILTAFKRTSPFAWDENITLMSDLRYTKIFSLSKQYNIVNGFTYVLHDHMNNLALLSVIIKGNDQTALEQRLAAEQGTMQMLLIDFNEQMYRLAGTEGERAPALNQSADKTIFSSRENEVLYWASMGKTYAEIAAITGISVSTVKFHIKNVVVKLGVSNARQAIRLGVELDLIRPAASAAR
Described as above.

The target of data set [4] is T4, HMGE (His6-MBP-TEV-Gly5-EsaR wild type) (Pantoea stewartii subsp. stewartii, UniProt P54293 1-249).
T4 sequence: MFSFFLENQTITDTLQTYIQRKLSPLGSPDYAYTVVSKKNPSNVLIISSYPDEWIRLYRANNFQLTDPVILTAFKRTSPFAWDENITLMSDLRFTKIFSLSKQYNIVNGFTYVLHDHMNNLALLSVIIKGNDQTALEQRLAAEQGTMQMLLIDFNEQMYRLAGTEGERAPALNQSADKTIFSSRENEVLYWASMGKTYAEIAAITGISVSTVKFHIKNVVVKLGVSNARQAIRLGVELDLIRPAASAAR
The description is as above.

For data set [5], the target named is T1, HMGE A32V. The data set is described as follows: fluorescence anisotropy; 1 uM AHL; 150 mM NaCl, 6 mM HEPES, 17.5 mM Tris, 3% glycerol, pH 7.6, 25 C, 20 min; 3 nM T-esabox, 0-100 nM protein. Background: Fluorescence polarisation rises when a labelled molecule tumbles more slowly, as on binding a larger partner.
Data set [6] deals with T2, HMGE D83E. The description is as above.
Data set [7] has as its target T3, HMGE F94Y. Described as above.
The target in data set [8] is T4, HMGE (His6-MBP-TEV-Gly5-EsaR wild type). Described as above.

B1: T-esabox (PesaR28 TAMRA/PesaR28R) (dsDNA)
DNA 1: TCTTGCCTGTACTATAGTGCAGGTTAAG
DNA 2: CTTAACCTGCACTATAGTACAGGCAAGA
With B1, the Kd in data set [1] stood at 2.18 ± 0.73 nM; in data set [2] it was 4.01 ± 1.13 nM; in data set [3] it was 3.26 ± 0.93 nM; in data set [4], 3.11 ± 0.33 nM; in data set [5] it was 2.33 ± 1.06 nM; in data set [6], 2.91 ± 0.58 nM. Besides, the Kd in data set [7] was 2.65 ± 1.03 nM; in data set [8], 6.19 ± 1.31 nM.
